Measurements from PMC10831248, “Characterization of membrane protein interactions by peptidisc-mediated mass photometry” (iScience, 2024).

Assays:
[1] = target: the molecule itself; test: mass photometry
[2] = target: T1, vitamin B12 ABC transporter BtuCD, reconstituted in peptidiscs (E. coli, UniProt P06609 1-326; P06611 1-249); test: without ATP
T1 chain 1: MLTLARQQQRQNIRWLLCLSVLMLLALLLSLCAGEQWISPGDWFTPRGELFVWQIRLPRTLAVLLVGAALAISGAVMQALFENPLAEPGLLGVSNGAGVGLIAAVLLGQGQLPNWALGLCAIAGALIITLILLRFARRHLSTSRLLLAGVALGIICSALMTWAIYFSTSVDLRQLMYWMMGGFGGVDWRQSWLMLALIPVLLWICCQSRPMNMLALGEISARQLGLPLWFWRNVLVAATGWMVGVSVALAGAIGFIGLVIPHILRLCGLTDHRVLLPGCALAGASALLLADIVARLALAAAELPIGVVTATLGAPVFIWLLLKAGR
T1 chain 2: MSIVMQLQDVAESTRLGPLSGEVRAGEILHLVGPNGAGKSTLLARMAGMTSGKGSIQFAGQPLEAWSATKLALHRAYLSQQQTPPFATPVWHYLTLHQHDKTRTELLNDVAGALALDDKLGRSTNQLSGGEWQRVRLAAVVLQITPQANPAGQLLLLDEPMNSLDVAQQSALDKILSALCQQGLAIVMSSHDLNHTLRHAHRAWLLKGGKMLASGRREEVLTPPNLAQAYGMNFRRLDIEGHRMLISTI

[3] = target: T1, vitamin B12 ABC transporter BtuCD, …; test: 1 mM ATP
[4] = target: the molecule itself; test: mass photometry; SEC fractions of His-tagged membrane proteins purified on Ni-NTA and reconstituted into peptidiscs, diluted 100-fold in PBS to ~5-20 nM; main species: subunits together in the native oligomer or complex in one disc

B1: mechanosensitive channel of large conductance (MscL) from Mycobacterium tuberculosis (natural protein)
chain: MLKGFKEFLARGNIVDLAVAVVIGTAFTALVTKFTDSIITPLINRIGVNAQSDVGILRIGIGGGQTIDLNVLLSAAINFFLIAFAVYFLVVLPYNTLRKKGEVEQPGDTQVVLLTEIRDLLAQTNGDSPGRHGGRGTPSPTDGPRASTESQ
notes: MscL, large-conductance mechanosensitive channel, Mycobacterium tuberculosis; also called M. Tb MscL; not shown: His6, C-terminal, kept
Q: Does B1 bind [1]?
A: Result: binds

B2: periplasmic B12 binding protein BtuF (natural protein)
chain: APRVITLSPANTELAFAAGITPVGVSSYSDYPPQAQKIEQVSTWQGMNLERIVALKPDLVIAWRGGNAERQVDQLASLGIKVMWVDATSIEQIANALRQLAPWSPQPDKAEQAAQSLLDQYAQLKAQYADKPKKRVFLQFGINPPFTSGKESIQNQVLEVCGGENIFKDSRVPWPQVSREQVLARSPQAIVITGGPDQIPKIKQYWGEQLKIPVIPLTSDWFERASPRIILAAQQLCNALSQVD
Q: For B2, which Kd [2] is on record?
A: The Kd was 48 nM.

Q: And the Kd [3]?
A: Its Kd is 25 nM.

B3: trimeric drug efflux pump AcrB (natural protein, E. coli, UniProt P31224 1-1049, looked up)
chain: MPNFFIDRPIFAWVIAIIIMLAGGLAILKLPVAQYPTIAPPAVTISASYPGADAKTVQDTVTQVIEQNMNGIDNLMYMSSNSDSTGTVQITLTFESGTDADIAQVQVQNKLQLAMPLLPQEVQQQGVSVEKSSSSFLMVVGVINTDGTMTQEDISDYVAANMKDAISRTSGVGDVQLFGSQYAMRIWMNPNELNKFQLTPVDVITAIKAQNAQVAAGQLGGTPPVKGQQLNASIIAQTRLTSTEEFGKILLKVNQDGSRVLLRDVAKIELGGENYDIIAEFNGQPASGLGIKLATGANALDTAAAIRAELAKMEPFFPSGLKIVYPYDTTPFVKISIHEVVKTLVEAIILVFLVMYLFLQNFRATLIPTIAVPVVLLGTFAVLAAFGFSINTLTMFGMVLAIGLLVDDAIVVVENVERVMAEEGLPPKEATRKSMGQIQGALVGIAMVLSAVFVPMAFFGGSTGAIYRQFSITIVSAMALSVLVALILTPALCATMLKPIAKGDHGEGKKGFFGWFNRMFEKSTHHYTDSVGGILRSTGRYLVLYLIIVVGMAYLFVRLPSSFLPDEDQGVFMTMVQLPAGATQERTQKVLNEVTHYYLTKEKNNVESVFAVNGFGFAGRGQNTGIAFVSLKDWADRPGEENKVEAITMRATRAFSQIKDAMVFAFNLPAIVELGTATGFDFELIDQAGLGHEKLTQARNQLLAEAAKHPDMLTSVRPNGLEDTPQFKIDIDQEKAQALGVSINDINTTLGAAWGGSYVNDFIDRGRVKKVYVMSEAKYRMLPDDIGDWYVRAADGQMVPFSAFSSSRWEYGSPRLERYNGLPSMEILGQAAPGKSTGEAMELMEQLASKLPTGVGYDWTGMSYQERLSGNQAPSLYAISLIVVFLCLAALYESWSIPFSVMLVVPLGVIGALLAATFRGLTNDVYFQVGLLTTIGLSAKNAILIVEFAKDLMDKEGKGLIEATLDAVRMRLRPILMTSLAFILGVMPLVISTGAGSGAQNAVGTGVMGGMVTATVLAIFFVPVFFVVVRRRFSRKNEDIEHSHTVDHH
notes: AcrB, multidrug efflux pump subunit, E. coli; It is carried in a peptidisc; source: E. coli C43(DE3), purified (DDM extraction, Ni-NTA, reconstituted into peptidiscs, SEC); not shown: His6, C-terminal, kept
Q: Does B3 bind [4]?
A: Result: binds
